This assay concerns the target recombinant SARS-CoV-2 spike RBD, WH-1 (Sino Biological 40592-V08B) (SARS-CoV-2 (wild type, WH-1)) (UniProt P0DTC2). The assay is described as follows: SPR (Biacore T200), minibinder immobilised, monomeric RBD as analyte. A general note: SPR reads the build-up and loss of mass on a sensor chip optically.

Here are results for 2 substances from patent EP4556028A1.

By Kd is commonly meant the free concentration of one partner at which half of the binding sites on the other are occupied at equilibrium, for simple one-to-one binding. As for “recombinant minibinder AHB2 with N- and C-terminal Ser/Gly extensions and C-terminal Cys (designed binder)”, the Kd came to 0.05 nM. “recombinant minibinder LCB1 with N- and C-terminal Ser/Gly extensions and C-terminal Cys (designed binder)”: the Kd was 0.005 nM and the fold higher affinity than AHB2 worked out at 10 fold.
